Data taken from US10941182 (Amgen, dated 2021).
Starred links: 1 amine or outer side, 2 acyl side, 3 side chain; linkers in the order of their positions; H or OH if unused. Non-standard residues stand in square brackets, D forms with d. *: point of attachment. C18 diacid = O=C(O)CCCCCCCCCCCCCCCCC(=O)*; dBip = N[C@H](Cc1ccc(-c2ccccc2)cc1)C(=O)O; Oic = O=C(O)[C@@H]1C[C@@H]2CCCC[C@@H]2N1; Heptadecanoyl = CCCCCCCCCCCCCCCCC(=O)*; Phe(4-I) = N[C@@H](Cc1ccc(I)cc1)C(=O)O; γGlu = O=C(O)[C@H](CCC(=O)[*:2])N[*:1]; 2Nal = N[C@@H](Cc1ccc2ccccc2c1)C(=O)O; Pentadecanoyl = CCCCCCCCCCCCCCC(=O)*; NMeR = CN[C@@H](CCCNC(=N)N)C(=O)O; Tridecanoyl = CCCCCCCCCCCCC(=O)*; hArg = N=C(N)NCCCC[C@H](N)C(=O)O; Tic = O=C(O)[C@@H]1Cc2ccccc2CN1; Cha = N[C@@H](CC1CCCCC1)C(=O)O; NMeL = CN[C@@H](CC(C)C)C(=O)O; Nle = CCCC[C@H](N)C(=O)O; Orn = NCCC[C@H](N)C(=O)O; AEEA = NCCOCCOCC(=O)O

Assays:
[1] = biological target: T1, rat APJ receptor (rat, UniProt Q9JHG3 1-377); experiment: cell-based or functional assay
T1 sequence (looked up): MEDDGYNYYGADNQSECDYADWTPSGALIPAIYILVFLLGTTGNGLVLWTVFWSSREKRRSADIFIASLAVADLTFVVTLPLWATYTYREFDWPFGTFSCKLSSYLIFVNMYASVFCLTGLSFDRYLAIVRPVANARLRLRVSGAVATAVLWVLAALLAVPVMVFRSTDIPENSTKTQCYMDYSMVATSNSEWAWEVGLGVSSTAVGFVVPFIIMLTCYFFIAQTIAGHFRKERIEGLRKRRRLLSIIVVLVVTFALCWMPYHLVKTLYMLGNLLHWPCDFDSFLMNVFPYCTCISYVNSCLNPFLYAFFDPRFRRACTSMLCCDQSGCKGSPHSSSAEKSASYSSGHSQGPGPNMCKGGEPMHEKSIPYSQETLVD

[2] = biological target: T2, human APJ receptor (human, UniProt P35414 1-380); experiment: cell-based or functional assay
T2 sequence (looked up): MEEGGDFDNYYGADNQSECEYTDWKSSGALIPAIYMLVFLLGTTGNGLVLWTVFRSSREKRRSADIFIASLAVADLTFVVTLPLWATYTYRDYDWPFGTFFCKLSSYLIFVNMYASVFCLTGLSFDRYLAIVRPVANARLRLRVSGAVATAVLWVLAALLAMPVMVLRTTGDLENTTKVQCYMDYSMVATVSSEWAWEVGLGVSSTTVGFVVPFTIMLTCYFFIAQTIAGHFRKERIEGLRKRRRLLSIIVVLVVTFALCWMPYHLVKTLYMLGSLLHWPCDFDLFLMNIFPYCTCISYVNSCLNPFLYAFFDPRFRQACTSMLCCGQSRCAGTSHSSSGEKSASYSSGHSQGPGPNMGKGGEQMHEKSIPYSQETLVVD

B1: apelin polypeptide SEQ ID NO: 258 (peptide)
peptide: Pentadecanoyl-[γGlu][AEEA][AEEA][Orn]F[hArg][hArg]QRP[hArg][NMeL]SHKG[Oic][Nle][2Nal]-OH
SMILES: CCCCCCCCCCCCCCC(=O)N[C@@H](CCC(=O)NCCOCCOCC(=O)NCCOCCOCC(=O)N[C@@H](CCCN)C(=O)N[C@@H](Cc1ccccc1)C(=O)N[C@@H](CCCCNC(=N)N)C(=O)N[C@@H](CCCCNC(=N)N)C(=O)N[C@@H](CCC(N)=O)C(=O)N[C@@H](CCCNC(=N)N)C(=O)N1CCC[C@H]1C(=O)N[C@@H](CCCCNC(=N)N)C(=O)N(C)[C@@H](CC(C)C)C(=O)N[C@@H](CO)C(=O)N[C@@H](Cc1c[nH]cn1)C(=O)N[C@@H](CCCCN)C(=O)NCC(=O)N1[C@H](C(=O)N[C@@H](CCCC)C(=O)N[C@@H](Cc2ccc3ccccc3c2)C(=O)O)C[C@@H]2CCCC[C@@H]21)C(=O)O
EC50 Rat APJ Receptor [1]: 2.57 nM
EC50 Human APJ Receptor [2]: 1.75 nM

B2: apelin polypeptide SEQ ID NO: 263 (peptide)
peptide: Heptadecanoyl-[γGlu][AEEA][AEEA][hArg][dR]Q[hArg]P[dR][NMeL]SHKG[Oic][Phe(4-I)]P[dBip]-OH
SMILES: CCCCCCCCCCCCCCCCC(=O)N[C@@H](CCC(=O)NCCOCCOCC(=O)NCCOCCOCC(=O)N[C@@H](CCCCNC(=N)N)C(=O)N[C@H](CCCNC(=N)N)C(=O)N[C@@H](CCC(N)=O)C(=O)N[C@@H](CCCCNC(=N)N)C(=O)N1CCC[C@H]1C(=O)N[C@H](CCCNC(=N)N)C(=O)N(C)[C@@H](CC(C)C)C(=O)N[C@@H](CO)C(=O)N[C@@H](Cc1c[nH]cn1)C(=O)N[C@@H](CCCCN)C(=O)NCC(=O)N1[C@H](C(=O)N[C@@H](Cc2ccc(I)cc2)C(=O)N2CCC[C@H]2C(=O)N[C@H](Cc2ccc(-c3ccccc3)cc2)C(=O)O)C[C@@H]2CCCC[C@@H]21)C(=O)O
EC50 Rat APJ Receptor [1]: 5.91 nM
EC50 Human APJ Receptor [2]: 3.99 nM

B3: apelin polypeptide SEQ ID NO: 264 (peptide)
peptide: {C18 diacid}-[γGlu][AEEA][AEEA][hArg][dR]Q[hArg]P[dR][NMeL]SHKG[Oic][Phe(4-I)]P[dBip]-OH
SMILES: CC(C)C[C@@H](C(=O)N[C@@H](CO)C(=O)N[C@@H](Cc1c[nH]cn1)C(=O)N[C@@H](CCCCN)C(=O)NCC(=O)N1[C@H](C(=O)N[C@@H](Cc2ccc(I)cc2)C(=O)N2CCC[C@H]2C(=O)N[C@H](Cc2ccc(-c3ccccc3)cc2)C(=O)O)C[C@@H]2CCCC[C@@H]21)N(C)C(=O)[C@@H](CCCNC(=N)N)NC(=O)[C@@H]1CCCN1C(=O)[C@H](CCCCNC(=N)N)NC(=O)[C@H](CCC(N)=O)NC(=O)[C@@H](CCCNC(=N)N)NC(=O)[C@H](CCCCNC(=N)N)NC(=O)COCCOCCNC(=O)COCCOCCNC(=O)CC[C@H](NC(=O)CCCCCCCCCCCCCCCCC(=O)O)C(=O)O
EC50 Rat APJ Receptor [1]: 193 nM
EC50 Human APJ Receptor [2]: 145 nM

B4: apelin polypeptide SEQ ID NO: 259 (peptide)
peptide: Heptadecanoyl-[γGlu][AEEA][AEEA][Orn]F[hArg][hArg]QRP[hArg][NMeL]SHKG[Oic][Nle][2Nal]-OH
SMILES: CCCCCCCCCCCCCCCCC(=O)N[C@@H](CCC(=O)NCCOCCOCC(=O)NCCOCCOCC(=O)N[C@@H](CCCN)C(=O)N[C@@H](Cc1ccccc1)C(=O)N[C@@H](CCCCNC(=N)N)C(=O)N[C@@H](CCCCNC(=N)N)C(=O)N[C@@H](CCC(N)=O)C(=O)N[C@@H](CCCNC(=N)N)C(=O)N1CCC[C@H]1C(=O)N[C@@H](CCCCNC(=N)N)C(=O)N(C)[C@@H](CC(C)C)C(=O)N[C@@H](CO)C(=O)N[C@@H](Cc1c[nH]cn1)C(=O)N[C@@H](CCCCN)C(=O)NCC(=O)N1[C@H](C(=O)N[C@@H](CCCC)C(=O)N[C@@H](Cc2ccc3ccccc3c2)C(=O)O)C[C@@H]2CCCC[C@@H]21)C(=O)O
EC50 Rat APJ Receptor [1]: 2.09 nM
EC50 Human APJ Receptor [2]: 2.59 nM

B5: apelin polypeptide SEQ ID NO: 260 (peptide)
peptide: {C18 diacid}-[γGlu][AEEA][AEEA][Orn]F[hArg][hArg]QRP[hArg][NMeL]SHKG[Oic][Nle][2Nal]-OH
SMILES: CCCC[C@H](NC(=O)[C@@H]1C[C@@H]2CCCC[C@@H]2N1C(=O)CNC(=O)[C@H](CCCCN)NC(=O)[C@H](Cc1c[nH]cn1)NC(=O)[C@H](CO)NC(=O)[C@H](CC(C)C)N(C)C(=O)[C@H](CCCCNC(=N)N)NC(=O)[C@@H]1CCCN1C(=O)[C@H](CCCNC(=N)N)NC(=O)[C@H](CCC(N)=O)NC(=O)[C@H](CCCCNC(=N)N)NC(=O)[C@H](CCCCNC(=N)N)NC(=O)[C@H](Cc1ccccc1)NC(=O)[C@H](CCCN)NC(=O)COCCOCCNC(=O)COCCOCCNC(=O)CC[C@H](NC(=O)CCCCCCCCCCCCCCCCC(=O)O)C(=O)O)C(=O)N[C@@H](Cc1ccc2ccccc2c1)C(=O)O
EC50 Rat APJ Receptor [1]: 75 nM
EC50 Human APJ Receptor [2]: 48.5 nM

B6: apelin polypeptide SEQ ID NO: 261 (peptide)
peptide: Tridecanoyl-[γGlu][AEEA][AEEA][hArg][dR]Q[hArg]P[dR][NMeL]SHKG[Oic][Phe(4-I)]P[dBip]-OH
SMILES: CCCCCCCCCCCCC(=O)N[C@@H](CCC(=O)NCCOCCOCC(=O)NCCOCCOCC(=O)N[C@@H](CCCCNC(=N)N)C(=O)N[C@H](CCCNC(=N)N)C(=O)N[C@@H](CCC(N)=O)C(=O)N[C@@H](CCCCNC(=N)N)C(=O)N1CCC[C@H]1C(=O)N[C@H](CCCNC(=N)N)C(=O)N(C)[C@@H](CC(C)C)C(=O)N[C@@H](CO)C(=O)N[C@@H](Cc1c[nH]cn1)C(=O)N[C@@H](CCCCN)C(=O)NCC(=O)N1[C@H](C(=O)N[C@@H](Cc2ccc(I)cc2)C(=O)N2CCC[C@H]2C(=O)N[C@H](Cc2ccc(-c3ccccc3)cc2)C(=O)O)C[C@@H]2CCCC[C@@H]21)C(=O)O
EC50 Rat APJ Receptor [1]: 9.38 nM
EC50 Human APJ Receptor [2]: 4.74 nM

B7: apelin polypeptide SEQ ID NO: 257 (peptide)
peptide: Tridecanoyl-[γGlu][AEEA][AEEA][Orn]F[hArg][hArg]QRP[hArg][NMeL]SHKG[Oic][Nle][2Nal]-OH
SMILES: CCCCCCCCCCCCC(=O)N[C@@H](CCC(=O)NCCOCCOCC(=O)NCCOCCOCC(=O)N[C@@H](CCCN)C(=O)N[C@@H](Cc1ccccc1)C(=O)N[C@@H](CCCCNC(=N)N)C(=O)N[C@@H](CCCCNC(=N)N)C(=O)N[C@@H](CCC(N)=O)C(=O)N[C@@H](CCCNC(=N)N)C(=O)N1CCC[C@H]1C(=O)N[C@@H](CCCCNC(=N)N)C(=O)N(C)[C@@H](CC(C)C)C(=O)N[C@@H](CO)C(=O)N[C@@H](Cc1c[nH]cn1)C(=O)N[C@@H](CCCCN)C(=O)NCC(=O)N1[C@H](C(=O)N[C@@H](CCCC)C(=O)N[C@@H](Cc2ccc3ccccc3c2)C(=O)O)C[C@@H]2CCCC[C@@H]21)C(=O)O
EC50 Rat APJ Receptor [1]: 3.14 nM
EC50 Human APJ Receptor [2]: 1.49 nM

B8: apelin polypeptide SEQ ID NO: 244 (peptide)
peptide: Tridecanoyl-[γGlu][AEEA][AEEA]Q[dR]P[NMeR][Cha]SHKG[Oic][Nle]P[Tic]-OH
SMILES: CCCCCCCCCCCCC(=O)N[C@@H](CCC(=O)NCCOCCOCC(=O)NCCOCCOCC(=O)N[C@@H](CCC(N)=O)C(=O)N[C@H](CCCNC(=N)N)C(=O)N1CCC[C@H]1C(=O)N(C)[C@@H](CCCNC(=N)N)C(=O)N[C@@H](CC1CCCCC1)C(=O)N[C@@H](CO)C(=O)N[C@@H](Cc1c[nH]cn1)C(=O)N[C@@H](CCCCN)C(=O)NCC(=O)N1[C@H](C(=O)N[C@@H](CCCC)C(=O)N2CCC[C@H]2C(=O)N2Cc3ccccc3C[C@H]2C(=O)O)C[C@@H]2CCCC[C@@H]21)C(=O)O
EC50 Rat APJ Receptor [1]: 281 nM
EC50 Human APJ Receptor [2]: 10.3 nM

B9: apelin polypeptide SEQ ID NO: 262 (peptide)
peptide: Pentadecanoyl-[γGlu][AEEA][AEEA][hArg][dR]Q[hArg]P[dR][NMeL]SHKG[Oic][Phe(4-I)]P[dBip]-OH
SMILES: CCCCCCCCCCCCCCC(=O)N[C@@H](CCC(=O)NCCOCCOCC(=O)NCCOCCOCC(=O)N[C@@H](CCCCNC(=N)N)C(=O)N[C@H](CCCNC(=N)N)C(=O)N[C@@H](CCC(N)=O)C(=O)N[C@@H](CCCCNC(=N)N)C(=O)N1CCC[C@H]1C(=O)N[C@H](CCCNC(=N)N)C(=O)N(C)[C@@H](CC(C)C)C(=O)N[C@@H](CO)C(=O)N[C@@H](Cc1c[nH]cn1)C(=O)N[C@@H](CCCCN)C(=O)NCC(=O)N1[C@H](C(=O)N[C@@H](Cc2ccc(I)cc2)C(=O)N2CCC[C@H]2C(=O)N[C@H](Cc2ccc(-c3ccccc3)cc2)C(=O)O)C[C@@H]2CCCC[C@@H]21)C(=O)O
EC50 Rat APJ Receptor [1]: 6.71 nM
EC50 Human APJ Receptor [2]: 4.42 nM
